In publication PMC3541406, “Solution Structure of an Archaeal DNA Binding Protein with an Eukaryotic Zinc Finger Fold”:

T1: AFV1p06 (ORF59a) (Acidianus filamentous virus 1? (AFV1, …, UniProt Q70LE5 1-59))
T1 sequence: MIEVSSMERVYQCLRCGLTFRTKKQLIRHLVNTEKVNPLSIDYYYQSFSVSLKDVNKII


What was measured:
Settings in all cases: protein: recombinant; tags: none; blunt
AFV1p06 (ORF59a) [1] = molecular target: T1, AFV1p06 (ORF59a); experiment: competition; vs labelled dsATcomb 75 nM, 0.5 uM protein; 50 mM HEPES pH 7.4, 10 uM ZnCl2, 150 mM NaCl, 5% glycerol, 0.02% Tween, 3 mM DTT, 50 ng/uL salmon sperm DNA, 15 min at 48 C; 6% native PAGE in TBE
AFV1p06 (ORF59a) [2] = molecular target: T1, AFV1p06 (ORF59a); experiment: EMSA; 10 uM ZnCl2, 50 ng/uL salmon sperm DNA, 75 nM probe, 0-2 uM protein; 50 mM HEPES pH 7.4, 10 uM ZnCl2, 150 mM NaCl, 5% glycerol, 0.02% Tween, 3 mM DTT, 50 ng/uL salmon sperm DNA, 15 min at 48 C; 6% native PAGE in TBE
AFV1p06 (ORF59a) [3] = molecular target: T1, AFV1p06 (ORF59a); experiment: competition; vs labelled dsGCcomb 75 nM, 0.5 uM protein; 50 mM HEPES pH 7.4, 10 uM ZnCl2, 150 mM NaCl, 5% glycerol, 0.02% Tween, 3 mM DTT, 50 ng/uL salmon sperm DNA, 15 min at 48 C; 6% native PAGE in TBE

Row | Binder | binding signal (AFV1p06 (ORF59a) [1]) | binding signal (AFV1p06 (ORF59a) [2]) | binding signal (AFV1p06 (ORF59a) [3])
1 | dsGCcomb (dsDNA) DNA 1: AGGGTGGCAGCGTCGGAGCCTCGCA DNA 2: TGCGAGGCTCCGACGCTGCCACCCT | ~0.5 molar ratio of cold dsGCcomb to hot dsATcomb giving clear signal decrease | ≥ 2 fold more efficient than dsATcomb | 
2 | dsATcomb (dsDNA) DNA 1: AATGATTCTAAGTATCTTAGAAACA DNA 2: TGTTTCTAAGATACTTAGAATCATT |  |  | ~5 molar ratio of cold dsATcomb to hot dsGCcomb for similar displacement
